Source: the MegaScale stability set (Tsuboyama et al. 2023)

B1: HEEH_KT_rd6_0790 (parent)
chain: SEEEEEEWRRAKERGEEIIILGILWKPNDEEAERRIKEALRRV

Variants of: B1
Assay: folding stability dG (cDNA display proteolysis); higher = more stable
Conditions: PBS, room temperature

First: K37H
Second: K37S
The “folding stability dG” value of the first is higher: 8.37 kJ/mol for the first, 7.73 kJ/mol for the second.

Going from K37P to K37F, the “folding stability dG” value rises from 1.67 kJ/mol to 8.83 kJ/mol.

Compared with K37G, E16M is higher in “folding stability dG” value: 5.98 kJ/mol for the first, 8.06 kJ/mol for the second.

Compared with E16T, E16H is lower in “folding stability dG” value: 8.13 kJ/mol for the first, 8.09 kJ/mol for the second.

Going from E16K to E16S, the “folding stability dG” value falls from 8.21 kJ/mol to 8.1 kJ/mol.

Compared with I20M, I20R is lower in “folding stability dG” value: 5.34 kJ/mol for the first, 4.53 kJ/mol for the second.

Compared with I20C, I20G is lower in “folding stability dG” value: 8.64 kJ/mol for the first, 3.13 kJ/mol for the second.

First: I20E
Second: I20A
The “folding stability dG” value of the first is lower: 2.9 kJ/mol for the first, 3.45 kJ/mol for the second.

Compared with I20Q, E33I is higher in “folding stability dG” value: 3.95 kJ/mol for the first, 6.23 kJ/mol for the second.

Compared with E33T, I19L is higher in “folding stability dG” value: 8.3 kJ/mol for the first, 8.88 kJ/mol for the second.

First: I19W
Second: I19S
The “folding stability dG” value of the first is higher: 10.6 kJ/mol for the first, 6.36 kJ/mol for the second.

First: I19P
Second: I19D
The “folding stability dG” value of the first is lower: 4.08 kJ/mol for the first, 4.17 kJ/mol for the second.

Compared with A39M, A39Y is lower in “folding stability dG” value: 8.77 kJ/mol for the first, 6.53 kJ/mol for the second.

First: A39G
Second: A39Q
The “folding stability dG” value of the first is lower: 5.53 kJ/mol for the first, 6.7 kJ/mol for the second.

Going from A39E to R41P, the “folding stability dG” value falls from 6.41 kJ/mol to 3.72 kJ/mol.

Going from R41L to R41D, the “folding stability dG” value falls from 8.64 kJ/mol to 7.51 kJ/mol.

Compared with R41N, R41V is lower in “folding stability dG” value: 8.26 kJ/mol for the first, 7.32 kJ/mol for the second.

Compared with R41I, K26T is higher in “folding stability dG” value: 7.37 kJ/mol for the first, 8.88 kJ/mol for the second.

First: A11L
Second: E2A
The “folding stability dG” value of the first is lower: 8.96 kJ/mol for the first, 9.19 kJ/mol for the second.

First: E2V
Second: E2Y
The “folding stability dG” value of the first is lower: 9.77 kJ/mol for the first, 10.8 kJ/mol for the second.

First: E2K
Second: E2S
The “folding stability dG” value of the first is lower: 9.17 kJ/mol for the first, 10.9 kJ/mol for the second.

Going from R10Q to R10P, the “folding stability dG” value falls from 7.57 kJ/mol to 3.35 kJ/mol.

Compared with R10G, L21Y is lower in “folding stability dG” value: 6.51 kJ/mol for the first, 6.05 kJ/mol for the second.

First: L21A
Second: L21N
The “folding stability dG” value of the first is higher: 7.72 kJ/mol for the first, 5.18 kJ/mol for the second.

Going from L21H to L21Q, the “folding stability dG” value falls from 7.87 kJ/mol to 7.69 kJ/mol.

Going from E7I to E7Y, the “folding stability dG” value falls from 9.87 kJ/mol to 9.15 kJ/mol.

First: E7C
Second: E7R
The “folding stability dG” value of the first is lower: 10.8 kJ/mol for the first, 12.4 kJ/mol for the second.

Compared with E7G, E5D is higher in “folding stability dG” value: 7.57 kJ/mol for the first, 8.06 kJ/mol for the second.

Going from E5A to E5V, the “folding stability dG” value falls from 7.28 kJ/mol to 7.23 kJ/mol.

Compared with R9N, A32Y is lower in “folding stability dG” value: 7.73 kJ/mol for the first, 4.46 kJ/mol for the second.

First: D29V
Second: D29G
The “folding stability dG” value of the first is higher: 5.23 kJ/mol for the first, 4.19 kJ/mol for the second.

Compared with D29L, R42N is higher in “folding stability dG” value: 4.22 kJ/mol for the first, 7.7 kJ/mol for the second.

First: E6V
Second: E6Q
The “folding stability dG” value of the first is lower: 6.87 kJ/mol for the first, 7.21 kJ/mol for the second.

First: E6L
Second: E6A
The “folding stability dG” value of the first is lower: 8.08 kJ/mol for the first, 8.31 kJ/mol for the second.

Going from E6N to G22D, the “folding stability dG” value falls from 7.74 kJ/mol to 5.42 kJ/mol.

Compared with G22N, G22Y is higher in “folding stability dG” value: 4.94 kJ/mol for the first, 8.26 kJ/mol for the second.

Compared with G22A, L40Q is lower in “folding stability dG” value: 5.74 kJ/mol for the first, 4.2 kJ/mol for the second.

Compared with E30G, E30L is higher in “folding stability dG” value: 7.46 kJ/mol for the first, 9.54 kJ/mol for the second.

First: E30N
Second: E30V
The “folding stability dG” value of the first is lower: 7.65 kJ/mol for the first, 8.54 kJ/mol for the second.

Going from E30M to E31L, the “folding stability dG” value falls from 9.37 kJ/mol to 7.06 kJ/mol.

Compared with E31N, E31V is higher in “folding stability dG” value: 7.08 kJ/mol for the first, 7.93 kJ/mol for the second.

Going from E31P to I18G, the “folding stability dG” value falls from 4.05 kJ/mol to 2.53 kJ/mol.

Going from I18S to I18P, the “folding stability dG” value falls from 4.89 kJ/mol to 1.97 kJ/mol.

Compared with I18H, E17F is higher in “folding stability dG” value: 5.39 kJ/mol for the first, 8.03 kJ/mol for the second.

First: E17C
Second: E17N
The “folding stability dG” value of the first is higher: 9.84 kJ/mol for the first, 8.16 kJ/mol for the second.

Going from E17Y to E17V, the “folding stability dG” value rises from 7.98 kJ/mol to 8.69 kJ/mol.

First: E17W
Second: I23G
The “folding stability dG” value of the first is higher: 9.56 kJ/mol for the first, 3.9 kJ/mol for the second.

First: I23A
Second: I23Q
The “folding stability dG” value of the first is higher: 4.09 kJ/mol for the first, 4.05 kJ/mol for the second.

Compared with I23E, K12D is higher in “folding stability dG” value: 4.1 kJ/mol for the first, 4.43 kJ/mol for the second.

Going from K12T to K12R, the “folding stability dG” value rises from 6.67 kJ/mol to 8.66 kJ/mol.

First: K12W
Second: W25D
The “folding stability dG” value of the first is higher: 10.2 kJ/mol for the first, 2.17 kJ/mol for the second.

Going from W25H to W25V, the “folding stability dG” value rises from 3 kJ/mol to 3.7 kJ/mol.

Going from W25F to W25A, the “folding stability dG” value falls from 5.87 kJ/mol to 4.1 kJ/mol.

Compared with W25N, E38N is higher in “folding stability dG” value: 1.77 kJ/mol for the first, 6.74 kJ/mol for the second.

First: E38H
Second: R14K
The “folding stability dG” value of the first is lower: 5.81 kJ/mol for the first, 8.89 kJ/mol for the second.

Compared with R14I, R14F is lower in “folding stability dG” value: 8.03 kJ/mol for the first, 6.97 kJ/mol for the second.

First: R14A
Second: R14T
The “folding stability dG” value of the first is higher: 8.53 kJ/mol for the first, 7.5 kJ/mol for the second.

Going from I36N to I36M, the “folding stability dG” value rises from 2.56 kJ/mol to 5.82 kJ/mol.

Compared with I36R, I36F is higher in “folding stability dG” value: 3.98 kJ/mol for the first, 6.26 kJ/mol for the second.

Compared with I36S, I36G is higher in “folding stability dG” value: 3.41 kJ/mol for the first, 4.32 kJ/mol for the second.

First: P27S
Second: P27H
The “folding stability dG” value of the first is higher: 4.25 kJ/mol for the first, 3.82 kJ/mol for the second.

Compared with P27R, P27W is higher in “folding stability dG” value: 3.54 kJ/mol for the first, 5.96 kJ/mol for the second.

Compared with E3T, E3F is higher in “folding stability dG” value: 9.89 kJ/mol for the first, 9.92 kJ/mol for the second.

First: E13N
Second: E13L
The “folding stability dG” value of the first is lower: 7.08 kJ/mol for the first, 10 kJ/mol for the second.

First: R34W
Second: R34M
The “folding stability dG” value of the first is lower: 8.05 kJ/mol for the first, 8.86 kJ/mol for the second.

First: R34D
Second: R34H
The “folding stability dG” value of the first is lower: 6.87 kJ/mol for the first, 7.22 kJ/mol for the second.

Going from R34F to R34V, the “folding stability dG” value falls from 7.95 kJ/mol to 7.81 kJ/mol.

Going from G15C to G15F, the “folding stability dG” value falls from 10.2 kJ/mol to 6.56 kJ/mol.

Going from G15M to G15L, the “folding stability dG” value falls from 6.95 kJ/mol to 6.7 kJ/mol.

Compared with G15V, R35W is higher in “folding stability dG” value: 5.51 kJ/mol for the first, 6.55 kJ/mol for the second.

First: R35D
Second: R35Y
The “folding stability dG” value of the first is higher: 6.24 kJ/mol for the first, 4.92 kJ/mol for the second.

Compared with R35F, R35M is higher in “folding stability dG” value: 5.77 kJ/mol for the first, 9.2 kJ/mol for the second.

Going from N28P to N28W, the “folding stability dG” value rises from 5.61 kJ/mol to 8.56 kJ/mol.

Going from N28K to E4D, the “folding stability dG” value rises from 6.05 kJ/mol to 9.07 kJ/mol.

First: V43I
Second: V43G
The “folding stability dG” value of the first is higher: 9.68 kJ/mol for the first, 7.7 kJ/mol for the second.

First: V43H
Second: S1V
The “folding stability dG” value of the first is lower: 10.3 kJ/mol for the first, 10.7 kJ/mol for the second.

Compared with S1E, S1H is higher in “folding stability dG” value: 9.32 kJ/mol for the first, 11.2 kJ/mol for the second.

Compared with S1Y, S1G is lower in “folding stability dG” value: 11.5 kJ/mol for the first, 11 kJ/mol for the second.

Compared with S1L, S1P is lower in “folding stability dG” value: 10.7 kJ/mol for the first, 9.32 kJ/mol for the second.

First: L24W
Second: L24Y
The “folding stability dG” value of the first is lower: 5.29 kJ/mol for the first, 7.18 kJ/mol for the second.

Going from L24E to L24P, the “folding stability dG” value rises from 5.4 kJ/mol to 5.83 kJ/mol.

Going from L24G to W8L, the “folding stability dG” value rises from 3.76 kJ/mol to 8.16 kJ/mol.

Compared with W8S, W8C is higher in “folding stability dG” value: 3.32 kJ/mol for the first, 6.99 kJ/mol for the second.

For W8K, the “folding stability dG” value was 3.44 kJ/mol.
